{
  "source": "paper PMC11483992",
  "key": {"monobody AS25": {"target": "monobody AS25", "sequence (main, as listed by the source)": "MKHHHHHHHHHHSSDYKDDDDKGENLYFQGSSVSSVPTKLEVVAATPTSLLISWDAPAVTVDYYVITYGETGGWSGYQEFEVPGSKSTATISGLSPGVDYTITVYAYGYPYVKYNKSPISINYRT", "test": "ITC; Abl SH2 in the syringe (200 µM, or 300 µM for AS25 Y45A-A57G) titrated to the monobody in the cell (20 µM, or 30 µM); 50 mM Tris pH 7.0, 250 mM NaCl, 5% glycerol; 25 °C"}, "AS25_(Y45A-A57G)": {"target": "AS25_(Y45A-A57G)", "sequence (main, as listed by the source Y45A A57G)": "as the sequence (main, as listed by the source) above, with Y77A, A89G counted along it", "test": "ITC; Abl SH2 in the syringe (200 µM, or 300 µM for AS25 Y45A-A57G) titrated to the monobody in the cell (20 µM, or 30 µM); 50 mM Tris pH 7.0, 250 mM NaCl, 5% glycerol; 25 °C"}, "AS25_(A57G)": {"target": "AS25_(A57G)", "sequence (main, as listed by the source A57G)": "as the sequence (main, as listed by the source) above, with A89G counted along it", "test": "ITC; Abl SH2 in the syringe (200 µM, or 300 µM for AS25 Y45A-A57G) titrated to the monobody in the cell (20 µM, or 30 µM); 50 mM Tris pH 7.0, 250 mM NaCl, 5% glycerol; 25 °C"}, "AS25 A57G monobody": {"target": "AS25 A57G monobody", "test": "ITC; Abl SH2 in the syringe (200 µM; 300 µM for AS25 Y45A-A57G) titrated to the monobody in the cell (20 µM; 30 µM for AS25 Y45A-A57G); 25 °C; 50 mM Tris pH 7.0, 250 mM NaCl, 5% glycerol; two replicate experiments"}, "AS25 Y45A-A57G monobody": {"target": "AS25 Y45A-A57G monobody", "sequence (main, as listed by the source Y45A A57G)": "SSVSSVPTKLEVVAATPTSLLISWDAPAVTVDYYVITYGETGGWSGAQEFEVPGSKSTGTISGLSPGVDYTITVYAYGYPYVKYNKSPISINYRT", "test": "ITC; Abl SH2 in the syringe (200 µM; 300 µM for AS25 Y45A-A57G) titrated to the monobody in the cell (20 µM; 30 µM for AS25 Y45A-A57G); 25 °C; 50 mM Tris pH 7.0, 250 mM NaCl, 5% glycerol; two replicate experiments"}, "AS25 monobody": {"target": "AS25 monobody", "test": "ITC; Abl SH2 in the syringe (200 µM; 300 µM for AS25 Y45A-A57G) titrated to the monobody in the cell (20 µM; 30 µM for AS25 Y45A-A57G); 25 °C; 50 mM Tris pH 7.0, 250 mM NaCl, 5% glycerol; two replicate experiments"}},
  "note": "Where “and” joins values, the source holds several entries; their conditions need not be identical. Equal entries are not always repeated.",
  "data": [
    {"substance": "Abl1 SH2 domain (from UniProt P00519 112-232) (domain or fragment)", "values": [
      {"measurement": "Kd", "setting": "monobody AS25", "result": 180, "unit": "nM"},
      {"measurement": "stoichiometry N", "setting": "monobody AS25", "result": 1},
      {"measurement": "Kd", "setting": "AS25_(Y45A-A57G)", "result": 2690, "unit": "nM"},
      {"measurement": "stoichiometry N", "setting": "AS25_(Y45A-A57G)", "result": 1},
      {"measurement": "Kd", "setting": "AS25_(A57G)", "result": 156, "unit": "nM"},
      {"measurement": "stoichiometry N", "setting": "AS25_(A57G)", "result": 1},
      {"measurement": "Kd", "setting": "AS25 A57G monobody", "result": 188, "unit": "nM"},
      {"measurement": "stoichiometry N", "setting": "AS25 A57G monobody", "result": "0.864 and 0.817"},
      {"measurement": "Kd", "setting": "AS25 Y45A-A57G monobody", "result": 3170, "unit": "nM"},
      {"measurement": "stoichiometry N", "setting": "AS25 Y45A-A57G monobody", "result": "0.792 and 0.788"},
      {"measurement": "Kd", "setting": "AS25 monobody", "result": 210, "unit": "nM"},
      {"measurement": "stoichiometry N", "setting": "AS25 monobody", "result": "0.861 and 0.869"}
    ]}
  ]
}
